Experimental data as given in the supplement of paper PMC7877785.
± gives the uncertainty stated by the source.

Experiment: self-splicing fitness, log relative to wild type (ln ratio); higher = more splicing; Tetrahymena group I intron in knt gene, E. coli kanamycin selection, DiMSum; sequences stand for … in CUCUCU…GGAGGGAAAAGUUAUCAGGCAUGCACCUGGUAGCUAGUCUUUAAACCAAUAGAUUGCAUCGGUUUAAAAGGCAAGACCGUCAAAUUGCGGGAAAGGGGUCAACAGCCGUUCAGUACCAAGUCUCAGGGGAAACUUUGAGAUGGCCUUGCAAAGGGUAUGGUAAUAAGCUGACGGACAUGGUCCUAACCACGCAGCCAAGUCCUAAGUCAACAGAUCUUCUGUUGAUAUGGAUGCAGUUCACAGACUAAAUGUCGGUCGGGGAAGAUGUAUUCUUCUCAUAAGAUAUAGUCGGACCUCUCCUUAAUGGGAGCUAGCGGAUGAAGUGAUGCAACACUGGAGCCGCUGGGAACUAAUUUGUAUGCGAAAGUAUAUUGAUUAGUUUUGGAGUACUCGUGGUCG
Method in brief: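 A randomised library covering all eight P1ex-region intron nucleotides was built with the intron in the knt kanamycin-resistance gene on pET-22b(+) and held in E. coli BL21(DE3). Cells were grown overnight at 37°C or 30°C on LB agar, with or without 25 μg/mL kanamycin, plus 100 μg/mL carbenicillin, 50 μM IPTG and 0.2% rhamnose, and pooled colonies were amplicon-sequenced on an Illumina HiSeq 2500. DiMSum fitness is the error-weighted combination of wild-type-normalised replicate fold changes, kanamycin versus none.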

Sequence	self-splicing fitness (ln) (30 °C)	self-splicing fitness (ln) (37 °C)
GUAUAGCAAUAUUACGCUAU	-3.33 ± 0.33	-1.23 ± 0.28
GUAUAGCAAUAUUACGGAGA		-2.57 ± 0.45
GUAUAGCAAUAUUACGGCCC		-0.246 ± 0.44
GUAUAGCAAUAUUACGGGAG		-1.77 ± 0.35
GUAUAGCAAUAUUACGGGCA	-1.34 ± 0.24	-1.35 ± 0.25
GUAUAGCAAUAUUACGGGGA	-2.52 ± 0.22	-2.83 ± 0.38
GUAUAGCAAUAUUACGGUCA	-1.5 ± 0.2	-0.663 ± 0.18
GUAUAGCAAUAUUACGGUUA	-1.28 ± 0.11	-0.761 ± 0.098
GUAUAGCAAUAUUACGGUUC	-1.22 ± 0.1	-0.0871 ± 0.12
GUAUAGCAAUAUUACGGUUU	-0.844 ± 0.089	-1.29 ± 0.16
GUAUAGCAAUAUUACGUAAC	-1.95 ± 0.36	-1.98 ± 0.32
GUAUAGCAAUAUUACGUCAA	-2.37 ± 0.37	-2.86 ± 0.32
GUAUAGCAAUAUUACGUCGC	-3.04 ± 0.25	-1.65 ± 0.2
GUAUAGCAAUAUUACGUCGU	-2.22 ± 0.12	-0.949 ± 0.13
GUAUAGCAAUAUUACGUUGG	-3.33 ± 0.31	-1.12 ± 0.26
GUAUAGCAAUAUUACGUUGU	-2.78 ± 0.26	-1.72 ± 0.23
GUAUAGCAAUAUUACGUUUC	-3.37 ± 0.25	-2.36 ± 0.33
GUAUAGCAAUAUUACGUUUG	-4.31 ± 0.46	-2.11 ± 0.2
GUCAAGCAAUAUUACGACCG	-3.14 ± 0.42	
GUCAAGCAAUAUUACGAGGA	-3.75 ± 0.47	-4.45 ± 0.45

Sequence	self-splicing fitness (ln) (30 °C)	self-splicing fitness (ln) (37 °C)
GUCAAGCAAUAUUACGAUAA	-1.8 ± 0.14	-1.58 ± 0.15
GUCAAGCAAUAUUACGAUGA	-2.41 ± 0.17	-1.1 ± 0.11
GUCAAGCAAUAUUACGAUGC	-1.3 ± 0.098	-0.442 ± 0.11
GUCAAGCAAUAUUACGCAAG	-3.29 ± 0.18	-2.48 ± 0.18
GUCAAGCAAUAUUACGCACU	-1.71 ± 0.062	-0.433 ± 0.072
GUCAAGCAAUAUUACGCCUU	-1.61 ± 0.068	-0.671 ± 0.097
GUCAAGCAAUAUUACGCGAG	-1.83 ± 0.11	-1.36 ± 0.12
GUCAAGCAAUAUUACGCUCU	-1.58 ± 0.14	-1.18 ± 0.14
GUCAAGCAAUAUUACGGACU	-4.38 ± 0.39	-2.72 ± 0.26
GUCAAGCAAUAUUACGGAGC	-2.47 ± 0.46	
GUCAAGCAAUAUUACGGCAA	-2.06 ± 0.15	-1.01 ± 0.094
GUCAAGCAAUAUUACGGCGA	-2.1 ± 0.14	-0.0443 ± 0.12
GUCAAGCAAUAUUACGGUAU	-1.54 ± 0.075	-0.662 ± 0.085
GUCAAGCAAUAUUACGUGCC	-4.07 ± 0.2	-2.73 ± 0.19
GUCAAGCAAUAUUACGUGCU	-3.07 ± 0.13	-2.7 ± 0.23
GUCAAGCAAUAUUACGUGUU	-2.85 ± 0.089	-1.35 ± 0.089
GUCCAGCAAUAUUACGAAAA	-1.1 ± 0.2	-0.701 ± 0.13
GUCCAGCAAUAUUACGAAUU	-0.818 ± 0.078	0.257 ± 0.097
GUCCAGCAAUAUUACGACAG	-3.57 ± 0.36	-1.93 ± 0.41
